Experimental findings from the supplement of paper PMC7125110 are described below.

To fix the notation:
B1: glmS ribozyme (parent)
chain: AUAAAAGCGCCAGAACUACAGAAAUGUAGUUGACGAGGAGGAGGUUUAUCGAAUUUUCGGCGGAUGCCUCCAAA

± gives the standard error. For some of these results: This sample holds only a part of the variants without activity. Some results are limits rather than exact numbers.

Conditions in all cases: with glucosamine-6-phosphate
Data set [1] covers variants of B1. As to the kind of experiment: kcat; higher = faster cleavage; RNA array. The procedure, abridged: (§1)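 Glucosamine-6-phosphate (40 μM to 10 mM) in HEPES/KCl/Mg(OAc)2 buffer was flowed over sequenced MiSeq chips, and tiles were imaged over ~14 h. Barcoded ribozyme variants there had been transcribed in situ by E. coli RNA polymerase and were tracked through a hybridised Cy3 probe at 37 °C. One- or two-exponential decay fits to per-tile medians, normalised to baseline and to non-cleaving reference variants, gave kobs. kcat and KM came from weighted Michaelis–Menten fits across concentrations.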

Variants of B1 are the subject of data set [2]. As to the kind of experiment: KM; higher = weaker cofactor use; RNA array. The method in brief:
as §1

Data set [3] covers variants of B1. In words: self-cleavage kobs at 40 uM GlcN6P; higher = faster cleavage; RNA array. The procedure, abridged:
as §1

Variants of B1 are the subject of data set [4]. As to the kind of experiment: self-cleavage kobs at 160 uM GlcN6P; higher = faster cleavage; RNA array. The procedure, abridged: as §1
The variants in data set [5] derive from B1. In words: self-cleavage kobs at 640 uM GlcN6P; higher = faster cleavage; RNA array. The method in brief:
as §1

In data set [6] the parent is B1. In words: self-cleavage kobs at 2500 uM GlcN6P; higher = faster cleavage; RNA array. The procedure, abridged: as §1
Data set [7] covers variants of B1. As to the kind of experiment: self-cleavage kobs at 10000 uM GlcN6P; higher = faster cleavage; RNA array. The method in brief:
as §1

The kcat is the maximal rate divided by the concentration of active sites. What is called KM is the substrate concentration at which the rate is half of its maximum. With A12G, the kcat in data set [1] was found to be 0.00143 ± 6.1e-05 s⁻¹. Moreover, the KM in data set [2] is 4240 ± 270 µM. The “self-cleavage kobs at 40 uM GlcN6P” value in data set [3] worked out at 1.01e-05 ± 1.5e-06 s⁻¹. In data set [4], the “self-cleavage kobs at 160 uM GlcN6P” value came out at 5.14e-05 ± 1.6e-06 s⁻¹. Also, the “self-cleavage kobs at 640 uM GlcN6P” value in data set [5] came to 0.000189 ± 3.5e-06 s⁻¹. The “self-cleavage kobs at 2500 uM GlcN6P” value in data set [6] turned out to be 0.000587 ± 2.8e-05 s⁻¹. In addition, the “self-cleavage kobs at 10000 uM GlcN6P” value in data set [7] is 0.001 ± 1.6e-05 s⁻¹.
Turning to G40U G59A, the kcat in data set [1] is less than 1e-05 s⁻¹. The “self-cleavage kobs at 160 uM GlcN6P” value in data set [4] was less than 1e-05 s⁻¹. The “self-cleavage kobs at 640 uM GlcN6P” value in data set [5] was less than 1e-05 s⁻¹.
Regarding A36G C70G, in data set [1], the kcat amounted to 1.29e-05 ± 3e-06 s⁻¹. For the same variant, the “self-cleavage kobs at 160 uM GlcN6P” value in data set [4] is less than 1e-05 s⁻¹.
In the case of U30G G43U, the kcat in data set [1] stood at 1.16e-05 ± 2.3e-06 s⁻¹. The “self-cleavage kobs at 160 uM GlcN6P” value in data set [4] was less than 1e-05 s⁻¹. Moreover, in data set [5], the “self-cleavage kobs at 640 uM GlcN6P” value is less than 1e-05 s⁻¹.
Take C16A C67A: the kcat in data set [1] came to 0.000254 ± 2.7e-05 s⁻¹. Besides, the Michaelis constant (KM) in data set [2] came to 598 ± 150 µM. In addition, in data set [4], the “self-cleavage kobs at 160 uM GlcN6P” value is 6.97e-05 ± 1.3e-05 s⁻¹. The “self-cleavage kobs at 640 uM GlcN6P” value in data set [5] was 0.000123 ± 1.2e-05 s⁻¹. For the same variant, in data set [6], the “self-cleavage kobs at 2500 uM GlcN6P” value worked out at 0.00021 ± 3.3e-05 s⁻¹. In addition, in data set [7], the “self-cleavage kobs at 10000 uM GlcN6P” value worked out at 0.000248 ± 2.9e-05 s⁻¹.
For C11G G66A, the kcat in data set [1] was less than 1e-05 s⁻¹. The “self-cleavage kobs at 40 uM GlcN6P” value in data set [3] was less than 1e-05 s⁻¹. Besides, in data set [4], the “self-cleavage kobs at 160 uM GlcN6P” value is less than 1e-05 s⁻¹. Also, the “self-cleavage kobs at 640 uM GlcN6P” value in data set [5] was less than 1e-05 s⁻¹. Moreover, in data set [7], the “self-cleavage kobs at 10000 uM GlcN6P” value is less than 1e-05 s⁻¹.
Turning to U56G G59C, in data set [1], the kcat was less than 1e-05 s⁻¹. Moreover, in data set [3], the “self-cleavage kobs at 40 uM GlcN6P” value is less than 1e-05 s⁻¹. In data set [4], the “self-cleavage kobs at 160 uM GlcN6P” value is less than 1e-05 s⁻¹. Further, the “self-cleavage kobs at 640 uM GlcN6P” value in data set [5] was less than 1e-05 s⁻¹.
Take C34U A48G C68A: the kcat in data set [1] was less than 1e-05 s⁻¹. For the same variant, the “self-cleavage kobs at 40 uM GlcN6P” value in data set [3] is less than 1e-05 s⁻¹. In addition, in data set [6], the “self-cleavage kobs at 2500 uM GlcN6P” value was less than 1e-05 s⁻¹.
As for G13C U30C A52G, in data set [1], the catalytic constant (kcat) was found to be 1.64e-05 ± 4.9e-06 s⁻¹.
In the case of G40A A52G, in data set [1], the kcat was 0.000342 ± 4.4e-05 s⁻¹. Further, the KM in data set [2] was 1490 ± 450 µM. Moreover, the “self-cleavage kobs at 640 uM GlcN6P” value in data set [5] stood at 0.000102 ± 1.6e-05 s⁻¹. Besides, the “self-cleavage kobs at 2500 uM GlcN6P” value in data set [6] amounted to 0.000251 ± 2.8e-05 s⁻¹. The “self-cleavage kobs at 10000 uM GlcN6P” value in data set [7] is 0.000277 ± 3e-05 s⁻¹.
For the variant G41A C70U, the kcat in data set [1] came to 0.0433 ± 0.0066 s⁻¹. Moreover, in data set [2], the KM is 1100 ± 210 µM. In data set [3], the “self-cleavage kobs at 40 uM GlcN6P” value is 0.00159 ± 0.00013 s⁻¹. For the same variant, the “self-cleavage kobs at 160 uM GlcN6P” value in data set [4] amounted to 0.0046 ± 0.0007 s⁻¹. Besides, the “self-cleavage kobs at 640 uM GlcN6P” value in data set [5] came out at 0.0179 ± 0.0025 s⁻¹. For the same variant, in data set [6], the “self-cleavage kobs at 2500 uM GlcN6P” value was found to be 0.0385 ± 0.013 s⁻¹. For the same variant, the “self-cleavage kobs at 10000 uM GlcN6P” value in data set [7] was determined as 0.0374 ± 0.0057 s⁻¹.
Consider A52G U69G, for which, in data set [1], the turnover number (kcat) is 5.99e-05 ± 2e-05 s⁻¹. In data set [4], the “self-cleavage kobs at 160 uM GlcN6P” value is 7.33e-05 ± 1.4e-05 s⁻¹. Further, the “self-cleavage kobs at 640 uM GlcN6P” value in data set [5] is 0.000113 ± 2.5e-05 s⁻¹. Further, in data set [6], the “self-cleavage kobs at 2500 uM GlcN6P” value is 7.25e-05 ± 1.2e-05 s⁻¹.
In the case of C8U G37A C58G, the kcat in data set [1] is less than 1e-05 s⁻¹.
Consider C8A C10A G38A C50G, for which the kcat in data set [1] came to 5.64e-05 ± 2.2e-05 s⁻¹. The “self-cleavage kobs at 40 uM GlcN6P” value in data set [3] is 3.68e-05 ± 1.4e-05 s⁻¹. For the same variant, in data set [4], the “self-cleavage kobs at 160 uM GlcN6P” value came to 8.75e-05 ± 1.8e-05 s⁻¹. For the same variant, the “self-cleavage kobs at 640 uM GlcN6P” value in data set [5] was 9.23e-05 ± 1.7e-05 s⁻¹. For the same variant, the “self-cleavage kobs at 10000 uM GlcN6P” value in data set [7] came out at 3.67e-05 ± 1e-05 s⁻¹.
Consider A53G G66A, for which, in data set [1], the kcat was determined as 0.0293 ± 0.014 s⁻¹. Besides, the “self-cleavage kobs at 40 uM GlcN6P” value in data set [3] amounted to 0.000617 ± 0.00011 s⁻¹. Moreover, the “self-cleavage kobs at 640 uM GlcN6P” value in data set [5] turned out to be 0.00474 ± 0.0013 s⁻¹. Besides, in data set [6], the “self-cleavage kobs at 2500 uM GlcN6P” value stood at 0.0128 ± 0.005 s⁻¹. Further, in data set [7], the “self-cleavage kobs at 10000 uM GlcN6P” value was 0.0293 ± 0.0075 s⁻¹.
In the case of U30G U31A, the kcat in data set [1] is 0.0147 ± 0.001 s⁻¹. Besides, the KM in data set [2] came to 914 ± 110 µM. Besides, the “self-cleavage kobs at 40 uM GlcN6P” value in data set [3] turned out to be 0.000631 ± 0.0002 s⁻¹. The “self-cleavage kobs at 10000 uM GlcN6P” value in data set [7] was determined as 0.0137 ± 0.0031 s⁻¹.
G38C G66U: the catalytic constant (kcat) in data set [1] is less than 1e-05 s⁻¹. In addition, in data set [4], the “self-cleavage kobs at 160 uM GlcN6P” value is less than 1e-05 s⁻¹. Moreover, in data set [7], the “self-cleavage kobs at 10000 uM GlcN6P” value is less than 1e-05 s⁻¹.
For the variant C11A A64G, the kcat in data set [1] was determined as 0.000168 ± 1.1e-05 s⁻¹. Moreover, the Michaelis-Menten constant (KM) in data set [2] was 1190 ± 250 µM. The “self-cleavage kobs at 640 uM GlcN6P” value in data set [5] turned out to be 5.53e-05 ± 1.3e-05 s⁻¹. The “self-cleavage kobs at 2500 uM GlcN6P” value in data set [6] came to 0.000135 ± 2.7e-05 s⁻¹. Also, in data set [7], the “self-cleavage kobs at 10000 uM GlcN6P” value is 0.000147 ± 1.6e-05 s⁻¹.
